As a reminder, the Kd is the free concentration of one partner at which half of the binding sites on the other are occupied at equilibrium, for simple one-to-one binding. As usually defined, the stoichiometry N is a count of units in the complex or per binding partner. A word on the Km: it is the concentration of substrate that gives half-maximal velocity. As a reminder, the kcat is the maximal rate divided by the concentration of active sites. What is called kcat/Km is the second-order rate constant that governs catalysis at low substrate concentration.

Series [1] has as its target T1, YghU (Escherichia coli, UniProt Q46845).
T1 sequence (Q46845 1-288): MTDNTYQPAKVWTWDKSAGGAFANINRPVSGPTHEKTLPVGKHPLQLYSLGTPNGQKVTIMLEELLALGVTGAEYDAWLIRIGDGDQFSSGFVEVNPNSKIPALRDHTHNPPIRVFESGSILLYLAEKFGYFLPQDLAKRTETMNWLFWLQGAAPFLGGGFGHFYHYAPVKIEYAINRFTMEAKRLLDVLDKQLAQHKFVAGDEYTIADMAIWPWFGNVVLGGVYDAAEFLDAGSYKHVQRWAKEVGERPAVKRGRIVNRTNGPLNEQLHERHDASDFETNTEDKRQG
The experiment in a line: intrinsic protein fluorescence titration, single-site fit. The format is binding.

Series [2] deals with the molecule itself. The experiment in a line: SEC. On the technique in general: Size exclusion chromatography separates by hydrodynamic size, large species first.
Substrate in series [3]: CC(C)(OO)c1ccccc1
Briefly: purified protein. The format is biochemical, Escherichia coli. As to conditions: GSH co-substrate, 100 mM KH2PO4, pH 7.0, 25 °C.

Substrate in series [4]: CCCCC[C@@H](/C=C/C=C\C/C=C\C/C=C\CCCC(=O)O)OO
The experiment in a line: purified protein. As to conditions: 3 mM GSH, 100 mM KH2PO4, pH 7.0, 0.005% BSA, 25 °C. The format is biochemical, Escherichia coli.

Substrate in series [5]: CCCCC[C@@H](/C=C/C=C\CCCCCCCC(=O)O)OO
The experiment in a line: purified protein. In kind it is biochemical, Escherichia coli. The settings on record: GSH co-substrate, 100 mM KH2PO4, pH 7.0, 25 °C.

Molecule `NCCCCNCCCNC(=O)CNC(=O)[C@H](CS)NC(=O)CC[C@H](N)C(=O)O` [GspSH] had a Kd in series [1] of 1000 ± 100 µM.

B1: YghU (enzyme, Escherichia coli K-12, UniProt Q46845 1-288, looked up)
chain: MTDNTYQPAKVWTWDKSAGGAFANINRPVSGPTHEKTLPVGKHPLQLYSLGTPNGQKVTIMLEELLALGVTGAEYDAWLIRIGDGDQFSSGFVEVNPNSKIPALRDHTHNPPIRVFESGSILLYLAEKFGYFLPQDLAKRTETMNWLFWLQGAAPFLGGGFGHFYHYAPVKIEYAINRFTMEAKRLLDVLDKQLAQHKFVAGDEYTIADMAIWPWFGNVVLGGVYDAAEFLDAGSYKHVQRWAKEVGERPAVKRGRIVNRTNGPLNEQLHERHDASDFETNTEDKRQG
Regarding B1, the “stoichiometry N” value in series [2] came out at 2. Also, in series [3], the Km was 16 ± 2 µM, the turnover number (kcat) was found to be 0.05 ± 0.001 s⁻¹ and the kcat/Km was 3500 ± 400 M⁻¹ s⁻¹. For the same molecule, in series [4], the Km amounted to 28 ± 4 µM, the kcat was found to be 0.096 ± 0.004 s⁻¹ and the kcat/Km was found to be 3400 ± 1500 M⁻¹ s⁻¹. Also, in series [5], the Michaelis-Menten constant (Km) is 130 ± 30 µM, the kcat came to 0.19 ± 0.02 s⁻¹ and the kcat/Km was 1500 ± 400 M⁻¹ s⁻¹.
